According to patent US20250388696A1 (NAVIGO PROTEINS, published 2025):
Numbering of substitutions follows the chain as printed. Where no end group is shown, it is not given here.

T1: human fibroblast activation protein (hFAP) expressed on the surface of HEK293-hFAP cells (human, UniProt Q12884 1-760)
T1 construct: whole, on cells; FAP overexpressing HEK293 cell line
T1 sequence (looked up): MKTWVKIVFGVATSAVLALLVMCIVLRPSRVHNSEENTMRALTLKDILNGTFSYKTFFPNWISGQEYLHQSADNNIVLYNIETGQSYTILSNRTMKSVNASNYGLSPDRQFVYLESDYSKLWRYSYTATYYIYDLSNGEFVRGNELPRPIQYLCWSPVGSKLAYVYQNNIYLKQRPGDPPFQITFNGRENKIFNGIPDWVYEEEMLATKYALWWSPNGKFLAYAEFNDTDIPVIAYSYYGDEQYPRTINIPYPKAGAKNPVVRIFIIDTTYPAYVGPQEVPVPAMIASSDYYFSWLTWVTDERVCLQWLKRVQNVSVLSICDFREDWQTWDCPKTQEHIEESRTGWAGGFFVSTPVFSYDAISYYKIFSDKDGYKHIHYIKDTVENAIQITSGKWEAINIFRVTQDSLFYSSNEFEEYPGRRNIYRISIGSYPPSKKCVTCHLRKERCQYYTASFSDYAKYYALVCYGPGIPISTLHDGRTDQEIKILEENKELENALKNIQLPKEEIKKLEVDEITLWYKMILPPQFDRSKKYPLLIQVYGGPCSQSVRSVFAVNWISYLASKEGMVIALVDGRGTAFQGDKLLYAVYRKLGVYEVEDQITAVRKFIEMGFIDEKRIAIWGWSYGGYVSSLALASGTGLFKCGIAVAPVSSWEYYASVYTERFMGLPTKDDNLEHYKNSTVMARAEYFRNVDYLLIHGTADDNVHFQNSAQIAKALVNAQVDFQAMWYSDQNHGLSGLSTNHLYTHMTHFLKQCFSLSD

T2: hFAP-Fc (human, UniProt Q12884 26-760, limits assumed)
T2 construct: also called Fc-tagged target (FAP)
T2 sequence (looked up): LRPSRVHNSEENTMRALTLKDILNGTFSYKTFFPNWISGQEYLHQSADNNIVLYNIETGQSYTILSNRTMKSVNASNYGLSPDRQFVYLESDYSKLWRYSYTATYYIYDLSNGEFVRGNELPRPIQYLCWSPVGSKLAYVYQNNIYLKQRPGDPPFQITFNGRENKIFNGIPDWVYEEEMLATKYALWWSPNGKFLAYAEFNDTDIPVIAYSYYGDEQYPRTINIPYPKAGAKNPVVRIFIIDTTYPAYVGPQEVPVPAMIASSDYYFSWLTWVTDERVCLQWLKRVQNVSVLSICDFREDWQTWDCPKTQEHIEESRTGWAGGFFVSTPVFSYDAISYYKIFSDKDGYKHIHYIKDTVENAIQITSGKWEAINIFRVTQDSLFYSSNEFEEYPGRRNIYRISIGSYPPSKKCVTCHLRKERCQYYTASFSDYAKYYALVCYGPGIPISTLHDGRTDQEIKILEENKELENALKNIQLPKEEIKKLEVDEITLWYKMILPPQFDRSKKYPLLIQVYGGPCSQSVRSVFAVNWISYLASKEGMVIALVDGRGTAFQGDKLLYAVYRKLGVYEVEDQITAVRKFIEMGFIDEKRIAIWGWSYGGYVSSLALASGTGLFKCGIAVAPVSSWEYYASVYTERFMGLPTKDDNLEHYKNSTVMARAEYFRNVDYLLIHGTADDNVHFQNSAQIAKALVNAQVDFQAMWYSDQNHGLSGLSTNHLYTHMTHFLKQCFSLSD

B1: Fusion proteins with albumin binding domain c42 (SEQ ID NO: 34) (designed binder, not shown: small tags and cut ends)
chain: LAEAKVLALKELDKYGISNYYKNLINNAKTIESVKALKDEIVAA
modifications: also: part of fusion protein, targeting moiety, linker, tag and order not given here
B2: Fusion proteins with albumin binding domain c45 (SEQ ID NO: 35) (designed binder, not shown: small tags and cut ends)
chain: B1 chain with Y20G, S33G
modifications: also: part of fusion protein, targeting moiety, linker, tag and order not given here
B3: Fusion proteins with albumin binding domain c49 (SEQ ID NO: 37) (designed binder, not shown: small tags and cut ends)
chain: B1 chain with Y20D, S33G, K35E, E40A, V42L
modifications: also: part of fusion protein, targeting moiety, linker, tag and order not given here
B4: Fusion proteins with albumin binding domain c50 (SEQ ID NO: 38) (designed binder, not shown: small tags and cut ends)
chain: B1 chain with Y21G, S33G, K35E, E40A, V42L
modifications: also: part of fusion protein, targeting moiety, linker, tag and order not given here
B5: fusion protein 218691 (designed binder, not shown: small tags and cut ends)
chain (part 1 of 2): not shown
chain (part 2 of 2): B1 chain with S33G, D39A, E40Q
notes: also called CID 218691
B6: fusion protein 218699 (designed binder, not shown: small tags and cut ends)
chain (part 1 of 2): not shown
chain (part 2 of 2): B1 chain with I31V, S33G, D39E, E40A
notes: also called CID 218699
B7: fusion protein 218704 (designed binder, not shown: small tags and cut ends)
chain (part 1 of 2): not shown
chain (part 2 of 2): LAEAKVLAIKELDKAGISNYYFNLINNAKTVEGVKDLKAQIVAA
notes: also called CID 218704
B8: fusion protein 218692 (designed binder, not shown: small tags and cut ends)
chain (part 1 of 2): not shown
chain (part 2 of 2): B7 chain (part 2 of 2)
notes: also called CID 218692
B9: fusion protein 218703 (designed binder, not shown: small tags and cut ends)
chain (part 1 of 2): not shown
chain (part 2 of 2): B1 chain with S33G, D39A, E40Q
notes: also called CID 218703
B10: fusion protein 218687 (designed binder, not shown: small tags and cut ends)
chain (part 1 of 2): not shown
chain (part 2 of 2): B1 chain with I31V, S33G, D39E, E40A
notes: also called CID 218687
B11: fusion protein 218708 (designed binder, not shown: small tags and cut ends)
chain (part 1 of 2): not shown
chain (part 2 of 2): LAEAKVLALKELDKYGISNYYKNLINNAKTVEGVKALKEAIVAALP
notes: also called CID 218708

biological target: T3, human serum albumin (human, UniProt P02768 25-609); test: SPR, HSA immobilised
T3 construct: also called HSA
T3 sequence (P02768 25-609 limits assumed): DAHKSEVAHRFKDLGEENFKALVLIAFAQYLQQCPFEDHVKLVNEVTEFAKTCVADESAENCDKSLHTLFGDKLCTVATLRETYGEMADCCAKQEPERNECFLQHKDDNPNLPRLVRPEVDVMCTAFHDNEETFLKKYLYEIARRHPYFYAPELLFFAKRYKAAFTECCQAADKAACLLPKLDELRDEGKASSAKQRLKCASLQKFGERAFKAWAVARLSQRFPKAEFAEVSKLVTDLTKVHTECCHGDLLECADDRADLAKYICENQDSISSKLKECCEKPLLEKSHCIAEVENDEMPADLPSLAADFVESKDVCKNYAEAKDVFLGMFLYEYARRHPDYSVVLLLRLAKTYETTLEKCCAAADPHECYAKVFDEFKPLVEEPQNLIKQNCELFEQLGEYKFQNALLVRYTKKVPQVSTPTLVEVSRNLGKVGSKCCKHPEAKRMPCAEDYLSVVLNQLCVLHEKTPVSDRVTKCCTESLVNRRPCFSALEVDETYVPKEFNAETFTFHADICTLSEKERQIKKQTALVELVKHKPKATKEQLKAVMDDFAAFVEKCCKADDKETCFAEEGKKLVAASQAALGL
Procedure: (§1) Recombinant protein A, HSA, MSA or target (either ED-B or Her2) was immobilized on a High Capacity Amine sensor chip (Bruker) after NHS/EDC activation with a Sierra SPR-32 system (Bruker). The chip was equilibrated with SPR running buffer (PBS 0.05%, Tween pH 7.3). Injection of ethanolamine after target immobilization was used to block free NHS groups. To determine the binding of fusion proteins to FAP, the Fc-tagged target was injected with 60 or 30 nM to Protein A coupled spots followed by the injection of fusion proteins.
(§2) Binding proteins were applied to the chip in serial dilutions with a flow rate of 30 μl/min. Upon binding, analyte accumulated on the surface increasing the refractive index. This change in the refractive index was measured in real time and plotted as response or resonance units versus time. The association was performed for 120 seconds and the dissociation for 180 seconds. After each run, the chip surface was regenerated with 30 μl regeneration buffer (10 mM glycine pH 2.0 or pH 1.5) and equilibrated with running buffer. Binding studies were carried out using the Sierra SPR-32 system (Bruker); data evaluation was operated via the Sierra Analyser software, provided by the manufacturer, by the use of the Langmuir 1:1 model (RI=0).

Kd [nM] | Binder
≥ 100 | B1
≥ 100 | B2
≥ 100 | B3
≥ 100 | B4

biological target: T4, mouse serum albumin (mouse, UniProt P07724 25-608); test: SPR, MSA immobilised
T4 construct: also called MSA
Procedure: as §1, §2

Kd [nM] | Binder
≥ 100 | B1
≥ 100 | B2
≥ 100 | B3
≥ 100 | B4

biological target: T1, human fibroblast activation protein …; test: flow cytometry on HEK293-hFAP cells
Procedure: Fusion proteins were tested with a concentration of 1 μM, 100 nM, 10 nM, 1 nM or 0.1 nM on hFAP expressing HEK293-hFAP-cells. To exclude an unspecific binding, fusion proteins were also incubated on control cells HEK293-pEntry with the same concentrations. […] Supernatants were removed after 45 min, cells were washed in blocking buffer and 100 μl/well rabbit anti-StrepTag antibody (GenScript; A00626), 1:300 diluted in FACS blocking buffer were added. […] Flow cytometry measurement was conducted on the Guava easyCyte 5HT device from Merck-Millipore at excitation wavelength 488 nm and emission wavelength 525/30 nm.

binding result | Binder
binds | B5
binds | B6
binds | B7

biological target: T3, human serum albumin; test: SPR, HSA immobilised on the chip, pH 7.3, 1:1 Langmuir fit
Procedure: as §1, §2

Kd [nM] | Binder
5 | B8
5.9 | B9
0.9 | B10
7.3 | B11

biological target: T2, hFAP-Fc; test: SPR, Fc-tagged FAP captured on immobilised protein A, pH 7.3, 1:1 Langmuir fit
Procedure: as §1, §2

Kd [nM] | Binder
4 | B8
5.8 | B9
3.4 | B10
4.4 | B11
